Results: IntAct's records for PubMed 23435566

B1: Rab-3A-interacting protein (Rattus norvegicus (Rat)), Q62739 (parent)
chain: MANDPLEGFHEVNLASPTSPDLLGVCDPGTQEQTTSPSVIYRPHPSTLCSATIQANALNLSDLPTQPVYSSPRHLNCAEISNISIHVPEPASSVASEVAAGLTRFTSRKDSCNAEREFLQGATVTEASAGNDDIFGLSTDSLSRLRSPSVLEVREKGYERLKEELAKAQRELKLKDEECERLSKVRDQLGQELEELTASLFEEAHKMVREANVKQATAEKQLKEAQGKIDVLQAEVAALKTLVLSSSPTSPTQEPLAAGKTPFKRGHTRNKSTSSAMSGSHQDFSAIQPIVKDCREADLSLYNEFRSWKDEPTMDRTCPFLDKIYQEDIFPCLTFAKSELASAVLEAVENNTLSIEPVGLQPIRFVKASAVECGGPKKCALTGQSKPCKHRIKLGDSSSYYYISPVCRYRITSVCNFFTYIRYIQQGLVKQQDVDQMFWEVMQLRKEMSLAKLGYFKEEL
B2: Rab-3A-interacting protein (Rattus norvegicus (Rat)), Q62739 (parent)
chain: B1 chain
partner: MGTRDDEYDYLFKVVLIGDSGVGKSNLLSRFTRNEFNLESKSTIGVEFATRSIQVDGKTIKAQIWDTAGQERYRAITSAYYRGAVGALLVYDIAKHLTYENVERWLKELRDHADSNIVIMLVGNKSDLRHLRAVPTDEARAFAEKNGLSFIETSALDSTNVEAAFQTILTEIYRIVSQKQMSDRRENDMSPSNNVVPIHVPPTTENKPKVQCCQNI

Variants of: B1
Settings: with exoc6_mouse Exoc6, Q8R313
Sequence of exoc6_mouse Exoc6, Q8R313 (Q8R313 whole entry): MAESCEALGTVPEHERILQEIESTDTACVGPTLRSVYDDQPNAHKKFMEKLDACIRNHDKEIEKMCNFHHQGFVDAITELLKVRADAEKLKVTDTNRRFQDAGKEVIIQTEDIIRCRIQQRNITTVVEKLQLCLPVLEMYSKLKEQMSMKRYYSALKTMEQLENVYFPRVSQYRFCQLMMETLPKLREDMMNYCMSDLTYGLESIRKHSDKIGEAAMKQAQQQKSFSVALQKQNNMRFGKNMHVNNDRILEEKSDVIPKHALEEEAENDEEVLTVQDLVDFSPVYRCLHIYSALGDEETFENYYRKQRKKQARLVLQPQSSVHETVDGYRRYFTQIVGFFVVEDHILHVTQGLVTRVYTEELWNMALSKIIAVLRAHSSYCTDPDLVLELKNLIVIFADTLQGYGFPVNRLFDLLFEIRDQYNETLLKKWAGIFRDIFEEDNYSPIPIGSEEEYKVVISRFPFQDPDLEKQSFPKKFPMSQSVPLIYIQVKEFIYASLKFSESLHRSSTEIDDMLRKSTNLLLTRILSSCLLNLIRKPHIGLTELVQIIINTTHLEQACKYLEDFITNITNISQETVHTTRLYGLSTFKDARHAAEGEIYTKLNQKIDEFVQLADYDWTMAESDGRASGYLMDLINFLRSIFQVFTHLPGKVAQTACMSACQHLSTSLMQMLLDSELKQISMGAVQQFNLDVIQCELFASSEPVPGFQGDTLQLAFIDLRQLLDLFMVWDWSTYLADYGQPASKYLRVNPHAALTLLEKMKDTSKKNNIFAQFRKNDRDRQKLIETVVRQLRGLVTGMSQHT

Row | Variant | effect of a mutation on the interaction
1 | I329S | increasing interaction

Variants of: B1
Settings: with exoc6_mouse Exoc6, Q8R313
Remark: another data set of the same source

Row | Variant | effect of a mutation on the interaction
2 | S272A | disrupting interaction

Variants of: B2
Settings: with rb11a_mouse Rab11a

Row | Variant | effect of a mutation on the interaction
3 | I329S | disrupting interaction

Variants of: B2
Settings: with rb11a_mouse Rab11a
Remark: another data set of the same source

Row | Variant | effect of a mutation on the interaction
4 | S272A | increasing interaction
